Assay results taken from patent US20170056327A1 (The Methodist Hospital, priority 2015, published 2017).

Legend:
[1] = test system: BRAF, phosphor-BRAF, MEK, phosphor-MEK, ERK, phosphor-ERK in A375 melanoma cells; experiment: Western blot of BRAF pathway proteins after treatment; format: cell-based, human; settings: delivered by composite with single cargo; siRNA 100 nM, docetaxel 100 nM
Protocol: The size and zeta potential of the particles were measured by the Zetasizer Nano (Malvern Instruments). The SEM characterization was shown on an ultra-high resolution scanning electron microscope (SEM 230, NovaNano, Hillsboro, Oreg., USA). Western blots were performed using standard protocols on 4%-15% Bio-Rad Mini-Protean TGX Precast Gels (Bio-Rad, Hercules, Calif., USA).

[2] = target: MMP2 substrate peptide … (SEQ ID NO:1); experiment: cell-based or functional assay
[3] = test system: T1, MMP2 substrate peptide AGFSGPLGMWSAGSFG (SEQ ID NO:1)
T1 sequence: AGFSGPLGMWSAGSFG

matrix metalloproteinase-2 (MMP-2) enzyme, sequence (P08253 110-660): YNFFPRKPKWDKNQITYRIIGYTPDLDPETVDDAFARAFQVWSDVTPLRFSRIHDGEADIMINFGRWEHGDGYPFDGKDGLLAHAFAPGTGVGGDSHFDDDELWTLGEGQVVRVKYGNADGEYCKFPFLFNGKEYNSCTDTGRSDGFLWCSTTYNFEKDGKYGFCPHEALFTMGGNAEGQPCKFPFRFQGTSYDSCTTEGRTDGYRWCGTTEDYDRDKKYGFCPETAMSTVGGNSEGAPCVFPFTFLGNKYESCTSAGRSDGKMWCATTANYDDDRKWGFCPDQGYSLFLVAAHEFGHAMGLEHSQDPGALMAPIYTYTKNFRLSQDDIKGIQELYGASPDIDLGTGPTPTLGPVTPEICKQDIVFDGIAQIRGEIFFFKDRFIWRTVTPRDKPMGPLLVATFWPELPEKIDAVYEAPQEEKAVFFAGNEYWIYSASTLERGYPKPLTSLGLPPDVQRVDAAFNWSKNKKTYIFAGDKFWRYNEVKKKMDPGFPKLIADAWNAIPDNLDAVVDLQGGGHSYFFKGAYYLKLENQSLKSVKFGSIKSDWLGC

Compound	effect on protein expression of BRAF pathway [1]	cellular uptake in A375 cells of stimuli-release particles (MSV/Peptide NPs) relative to non-stimuli-release particles (MSV/NPs), medium with 2 ug/mL MMP2, 6-hrs' incubation [2]	cellular uptake in A375 cells of stimuli-release particles (MSV/Peptide NPs) relative to non-stimuli-release particles (MSV/NPs), medium with 2 ug/mL MMP2, 24-hrs' incubation [2]	coumarin 6 released into buffer within 6 hrs from MSV/Peptide NPs with MMP2 enzyme (2 ug/mL); without MMP2 cleavage only about 40% was released [3]
CC(=O)O[C@@]12CO[C@@H]1C[C@H](O)[C@@]1(C)C(=O)[C@H](O)C3=C(C)[C@@H](OC(=O)[C@H](O)[C@@H](NC(=O)OC(C)(C)C)c4ccccc4)C[C@@](O)([C@@H](OC(=O)c4ccccc4)[C@H]21)C3(C)C [docetaxel]	decreased the expression of BRAF, phosphor-BRAF and phosphor-MEK, but increased the expression of phosphor-ERK	–	–	–
5′-GCUACAGAGAAAUCUCGAU-3′ (listed as RNA, chemistry not given here) [BRAF siRNA]	knockdown BRAF expression and its related phosphor-proteins downstream	–	–	–
matrix metalloproteinase-2 (MMP-2) enzyme	–	1.2 fold	1.5 fold	about 80% of the coumarin 6 was released
